Where no end group is shown, it is not given here.

The test has as its target β-subunit of nerve growth factor (UniProt P01138 122-241). Briefly: ELISA.

β-subunit of nerve growth factor, sequence (P01138 122-241): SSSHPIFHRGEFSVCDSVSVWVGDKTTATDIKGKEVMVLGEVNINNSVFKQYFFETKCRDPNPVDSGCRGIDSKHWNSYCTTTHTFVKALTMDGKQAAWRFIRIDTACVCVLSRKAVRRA

B1: NK-displaying M13 phage (β-NGF-binding peptide NK displayed on M13 phage) (peptide)
peptide: NERALTLGEEGAVVK
modifications: also: displayed on M13 phage
For B1, the “fold increase in ELISA absorbance” value is 4 fold.

Source of the values: paper PMC11927663 (Science Advances, 2025).
